Assay results reported in patent US9187525B2, “Methods of treating ophthalmic diseases using NPR-B agonists” (Shire Orphan Therapies GmbH, dated 2015).
Numbered stars: 1 amine (or outer) side, 2 acyl side, 3 side chain; on linkers, the order of the positions; unused ones are H or OH. Square brackets hold non-standard residues; d marks the D form. Primed or numbered codes have the meaning given here. Ends that are not written are not given here. * marks the point of attachment. Pro(trans-4-NH2) = O=C([C@@H]1C[C@@H](N[*:3])CN1[*:1])[*:2]; Sni = (S)-nipecotic acid, O=C([C@H]1CCCN([*:1])C1)[*:2]; cPrCO(1-aminomethyl) = O=C(C1(CN[*:1])CC1)[*:2]; pT = C[C@@H](OP(=O)(O)O)[C@H](N)C(=O)O; Cya = N[C@@H](CS(=O)(=O)O)C(=O)O; Hyp = O=C(O)[C@@H]1C[C@@H](O)CN1; pS = N[C@@H](COP(=O)(O)O)C(=O)O; dTle = CC(C)(C)[C@@H](N)C(=O)O; NMeL = CN[C@@H](CC(C)C)C(=O)O; Chg = N[C@H](C(=O)O)C1CCCCC1; Hyp(2581) = not defined here; orn(Me2) = not defined here; Nle = CCCC[C@H](N)C(=O)O; Octanoyl = CCCCCCCC(=O)*; dAbu = CC[C@@H](N)C(=O)O; 2797 = not defined here; 3806 = not defined here; 3816 = not defined here; 565 = not defined here; Che = not defined here; leu = not defined here; Ac3c = NC1(C(=O)O)CC1; Occ = octanoic acid

T1: natriuretic peptide receptor-B (human)
T1 chain: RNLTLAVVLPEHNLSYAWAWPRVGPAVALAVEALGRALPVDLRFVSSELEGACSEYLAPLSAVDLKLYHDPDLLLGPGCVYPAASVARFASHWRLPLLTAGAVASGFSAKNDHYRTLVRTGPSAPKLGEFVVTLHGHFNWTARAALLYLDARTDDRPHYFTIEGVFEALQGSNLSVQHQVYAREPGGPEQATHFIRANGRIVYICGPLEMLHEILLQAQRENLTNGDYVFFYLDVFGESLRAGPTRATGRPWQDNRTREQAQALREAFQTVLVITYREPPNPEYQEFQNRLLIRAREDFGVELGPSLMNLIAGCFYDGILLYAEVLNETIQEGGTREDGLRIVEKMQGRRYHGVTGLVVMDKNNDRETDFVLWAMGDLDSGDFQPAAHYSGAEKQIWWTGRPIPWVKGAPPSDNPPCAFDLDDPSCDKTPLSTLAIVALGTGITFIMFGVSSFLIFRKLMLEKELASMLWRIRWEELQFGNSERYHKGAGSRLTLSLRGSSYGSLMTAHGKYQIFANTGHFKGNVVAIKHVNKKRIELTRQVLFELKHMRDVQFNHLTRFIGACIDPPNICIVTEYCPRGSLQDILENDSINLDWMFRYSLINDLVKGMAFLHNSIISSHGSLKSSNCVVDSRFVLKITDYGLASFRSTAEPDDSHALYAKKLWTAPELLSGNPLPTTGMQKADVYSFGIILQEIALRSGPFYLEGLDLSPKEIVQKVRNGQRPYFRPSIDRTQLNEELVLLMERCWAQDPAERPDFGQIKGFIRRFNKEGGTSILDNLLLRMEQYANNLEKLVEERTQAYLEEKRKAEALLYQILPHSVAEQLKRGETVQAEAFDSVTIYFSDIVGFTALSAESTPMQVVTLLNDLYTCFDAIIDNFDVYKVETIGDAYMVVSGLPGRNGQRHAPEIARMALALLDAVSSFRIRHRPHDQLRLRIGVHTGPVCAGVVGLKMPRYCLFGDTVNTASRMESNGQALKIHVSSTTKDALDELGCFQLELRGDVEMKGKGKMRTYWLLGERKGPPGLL

B1: JAL-1921 (peptide)
peptide: [Occ][Sni]F[orn(Me2)]L[Hyp][NMeL]SRI-NH2
modifications: reading uncertain; also: printed as Occ-Sni-Phe-orn(Me2)-Leu-Hyp-Nml-Ser-Arg-Ile-NH2
B2: JAL-0749 (peptide)
peptide: Octanoyl-[dA][dA]FGLKLDR[3816]
modifications: reading uncertain; also: printed as Occ-ala-ala-Phe-Gly-Leu-Lys-Leu-Asp-Arg-3816
B3: JAL-0769 (peptide)
peptide: Octanoyl-[dA][dA]FGLKLDRI-NH2
modifications: not fully specified (some residues); printed as Occ-ala-ala-Phe-Gly-Leu-Lys-leu-Asp-Arg-Ile-NH2
B4: JAL-1936 (peptide)
peptide: [Occ][Sni]F[orn(Me2)]L[Pro(trans-4-NH2)][NMeL]DRI-NH2
modifications: reading uncertain; also: printed as Occ-Sni-Phe-orn(Me2)-Leu-Tap-Nml-Asp-Arg-Ile-NH2
B5: JAL-1929 (peptide)
peptide: [Occ][Sni]F[leu]L[Hyp(2581)][NMeL]DRI-NH2
modifications: reading uncertain; also: printed as Occ-Sni-Phe-leu-Leu-Hyp(2581)-Nml-Asp-Arg-Ile-NH2
B6: JAL-1928 (peptide)
peptide: [Occ][Sni]F[leu]LX[NMeL]DRI-NH2
modifications: not fully specified (residue 6); printed as Occ-Sni-Phe-leu-Leu-Hyp(Asp(-))-Nml-Asp-Arg-Ile-NH2
B7: JAL-1918 (peptide)
peptide: [Occ][Sni]F[orn(Me2)]L[Hyp][NMeL][pT]R[Che]
modifications: reading uncertain; also: printed as Occ-Sni-Phe-orn(Me2)-Leu-Hyp-Nml-Pth-Arg-Che
B8: JAL-1923 (peptide)
peptide: [Occ][Sni]F[orn(Me2)]L[Hyp][NMeL][Cya]RI-NH2
modifications: reading uncertain; also: printed as Occ-Sni-Phe-orn(Me2)-Leu-Hyp-Nml-Cya-Arg-Ile-NH2
B9: JAL-0754 (peptide)
peptide: Octanoyl-[dA][dA]FGLKLDR[2797]
modifications: reading uncertain; also: printed as Occ-ala-ala-Phe-Gly-Leu-Lys-Leu-Asp-Arg-2797
B10: JAL-0751 (peptide)
peptide: Octanoyl-[dA][dA]FGLKLDR[3806]
modifications: reading uncertain; also: printed as Occ-ala-ala-Phe-Gly-Leu-Lys-Leu-Asp-Arg-3806
B11: JAL-1917 (peptide)
peptide: Octanoyl-[Sni]FLL[Hyp][NMeL][pS]R[Che]
modifications: not fully specified (some residues); printed as Occ-Sni-Phe-leu-Leu-Hyp-Nml-Pse-Arg-Che; reading uncertain
B12: JAL-1931 (peptide)
peptide: [Occ][Sni]F[orn(Me2)]L[Hyp][NMeL]DRI-OH
modifications: reading uncertain; also: printed as Occ-Sni-Phe-orn(Me2)-Leu-Hyp-Nml-Asp-Arg-Ile-OH
B13: JAL-1935 (peptide)
peptide: [Occ][Sni]F[leu]LX[NMeL]DRI-NH2
modifications: not fully specified (residue 6); printed as Occ-Sni-Phe-leu-Leu-Tap(Asp(-))-Nml-Asp-Arg-Ile-NH2
B14: JAL-1916 (peptide)
peptide: [Occ][Sni]F[orn(Me2)]L[Hyp][NMeL][pS]R[Che]
modifications: reading uncertain; also: printed as Occ-Sni-Phe-orn(Me2)-Leu-Hyp-Nml-Pse-Arg-Che
B15: JAL-1924 (peptide)
peptide: [Occ][Sni]F[orn(Me2)]L[Hyp][NMeL]TRI-NH2
modifications: reading uncertain; also: printed as Occ-Sni-Phe-orn(Me2)-Leu-Hyp-Nml-Thr-Arg-Ile-NH2
B16: JAL-0771 (peptide)
peptide: XAAFGLKVDRI
modifications: not fully specified (residue 1, C-terminus); printed as Occ-ala-ala-Phe-Gly-Leu-Lys-Val-Asp-Arg-Ile-NH2

Biological target: T1, natriuretic peptide receptor-B
Test: cell-based or functional assay

[Occ][Sni]F[leu]L[Hyp][NMeL]DRI-OH (reading uncertain; also: printed as Occ-Sni-Phe-leu-Leu-Hyp-Nml-Asp-Arg-Ile-OH) [JAL-1930] and B1 cannot be ordered by “EC50 group, cGMP in GTM-3 cells” value: ≤ 5 µM for the first, ≤ 15 µM for the second.

B2 and [Occ][dTle]FGLKLDRI-NH2 [JAL-0758] cannot be ordered by “EC50 group, cGMP in GTM-3 cells” value: ≤ 15 µM for the first, ≤ 15 µM for the second.

[Occ][Sni]F[leu]L[Hyp][NMeL][Cya]RI-NH2 (reading uncertain; also: printed as Occ-Sni-Phe-leu-Leu-Hyp-Nml-Cya-Arg-Ile-NH2) [JAL-1922] and Octanoyl-[dAbu]FGLKLDRI-NH2 [JAL-0762] cannot be ordered by “EC50 group, cGMP in GTM-3 cells” value: ≤ 5 µM for the first, ≤ 15 µM for the second.

B3 and Octanoyl-[dA][dA]FGLKLDR[565] (reading uncertain; also: printed as Occ-ala-ala-Phe-Gly-Leu-Lys-Leu-Asp-Arg-565) [JAL-0752] cannot be ordered by “EC50 group, cGMP in GTM-3 cells” value: ≤ 15 µM for the first, ≤ 5 µM for the second.

[Occ][Sni]F[leu]L[Hyp][NMeL]SRI-NH2 (reading uncertain; also: printed as Occ-Sni-Phe-leu-Leu-Hyp-Nml-Ser-Arg-Ile-NH2) [JAL-1920] and [Occ][Ac3c]FGLKLDRI-NH2 [JAL-0761] cannot be ordered by “EC50 group, cGMP in GTM-3 cells” value: ≤ 5 µM for the first, ≤ 15 µM for the second.

Octanoyl-[dS]FGLKLDRI-NH2 [JAL-0763] and B4 cannot be ordered by “EC50 group, cGMP in GTM-3 cells” value: ≤ 15 µM for the first, ≤ 1 µM for the second.

B5 and [Occ][cPrCO(1-aminomethyl)]FGLKLDRI-NH2 [JAL-0760] cannot be ordered by “EC50 group, cGMP in GTM-3 cells” value: ≤ 5 µM for the first, ≤ 15 µM for the second.

B6 and B7 cannot be ordered by “EC50 group, cGMP in GTM-3 cells” value: ≤ 5 µM for the first, ≤ 5 µM for the second.

[Occ][Sni]F[leu]L[Hyp][NMeL]TRI-NH2 (reading uncertain; also: printed as Occ-Sni-Phe-leu-Leu-Hyp-Nml-Thr-Arg-Ile-NH2) [JAL-1932] and Octanoyl-[dV]FGLKLDRI-NH2 [JAL-0756] cannot be ordered by “EC50 group, cGMP in GTM-3 cells” value: ≤ 1 µM for the first, ≤ 15 µM for the second.

B8 and B9 cannot be ordered by “EC50 group, cGMP in GTM-3 cells” value: ≤ 5 µM for the first, ≤ 5 µM for the second.

B10 and B11 cannot be ordered by “EC50 group, cGMP in GTM-3 cells” value: ≤ 15 µM for the first, ≤ 15 µM for the second.

[Occ][Sni]F[leu]L[Hyp][NMeL][pT]R[Che] (reading uncertain; also: printed as Occ-Sni-Phe-leu-Leu-Hyp-Nml-Pth-Arg-Che) [JAL-1919] and Octanoyl-[dA][dA]FGLKIDRI-NH2 [JAL-0770] cannot be ordered by “EC50 group, cGMP in GTM-3 cells” value: ≤ 5 µM for the first, ≤ 15 µM for the second.

Octanoyl-[dA][dA]FGLK[Chg]DRI-NH2 [JAL-0772] and B12 cannot be ordered by “EC50 group, cGMP in GTM-3 cells” value: ≤ 15 µM for the first, ≤ 5 µM for the second.

B13 and B14 cannot be ordered by “EC50 group, cGMP in GTM-3 cells” value: ≤ 5 µM for the first, ≤ 15 µM for the second.

Octanoyl-[dA][dA]FGLPLDRI-NH2 [JAL-0781_01] and Octanoyl-[dA][dA]FGLK[Nle]DRI-NH2 [JAL-0775] cannot be ordered by “EC50 group, cGMP in GTM-3 cells” value: ≤ 5 µM for the first, ≤ 15 µM for the second.

B15 and Octanoyl-[dA][dA]FGLK[NMeL]DRI-NH2 [JAL-0776] cannot be ordered by “EC50 group, cGMP in GTM-3 cells” value: ≤ 5 µM for the first, ≤ 15 µM for the second.

For B16, the “EC50 group, cGMP in GTM-3 cells” value was ≤ 15 µM.
